Target: T1, soluble human FcRn (heterodimer of FcRn alpha chain and beta2-microglobulin) (human, UniProt P55899 24-297; P61769 21-119)
T1 construct: Expressed in HEK293H and purified on IgG Sepharose; also called hFcRn
Assay: SPR Biacore T100, antibody captured via protein L, hFcRn analyte, pH 7.0, 25 C;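 further: KD derived from kinetic ka and kd fits of sensorgrams, CM4 sensor chip, sodium phosphate NaCl Tween20 running buffer, buffer-only injection used as reference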

Row | Binder | Kd
1 | IgG1-F1134 (antibody, VH3-IgG1 with Fc substitutions (EU numbering) + L(WT)-CK) heavy: QVQLQESGPGLVKPSETLSLTCAVSGHSISHDHAWSWVRQPPGEGLEWIGFISYSGITNYNPSLQGRVTISRDNSKNTLYLQMNSLRAEDTAVYYCARSLARTTAMDYWGEGTLVTVSSASTKGPSVFPLAPSSKSTSGGTAALGCLVKDYFPEPVTVSWNSGALTSGVHTFPAVLQSSGLYSLSSVVTVPSSSLGTQTYICNVNHKPSNTKVDKKVEPKSCDKTHTCPPCPAPELRGGPKVFLFPPKPKDTLYISRTPEVTCVVVDVSHEDPEVKFNWYVDGVEVHNAKTKPREEQYNSTYRVVSVLTVLHQDWLNGKEYKCKVSNKALPAPIEKTISKAKGQPREPQVYTLPPSRDELTKNQVSLTCLVKGFYPSDIAVEWESNGQPENNYKTTPPVLDSDGSFFLYSKLTVDKSRWQQGNVFSCSVMHEALHYHVTRKSLSLSP light: not shown | 170 nM
2 | IgG1-F1137 (antibody, VH3-IgG1 with Fc substitutions (EU numbering) + L(WT)-CK) heavy: QVQLQESGPGLVKPSETLSLTCAVSGHSISHDHAWSWVRQPPGEGLEWIGFISYSGITNYNPSLQGRVTISRDNSKNTLYLQMNSLRAEDTAVYYCARSLARTTAMDYWGEGTLVTVSSASTKGPSVFPLAPSSKSTSGGTAALGCLVKDYFPEPVTVSWNSGALTSGVHTFPAVLQSSGLYSLSSVVTVPSSSLGTQTYICNVNHKPSNTKVDKKVEPKSCDKTHTCPPCPAPELRGGPKVFLFPPKPKDTLYISRTPEVTCVVVDVSHEDPEVKFNWYVDGVEVHNAKTKPREEQYNSTYRVVSVLTVLHQDWLNGKEYKCKVSNKALPAPIEKTISKAKGQPREPQVYTLPPSRDELTKNQVSLTCLVKGFYPSDIAVEWESNGQPENNYKTTPPVLDSDGSFFLYSKLTVDKSRWQQGNSFRCSVMHEALHYHVTQKSLSLSP light: not shown | 160 nM
3 | IgG1-F1135 (antibody, VH3-IgG1 with Fc substitutions (EU numbering) + L(WT)-CK) heavy: QVQLQESGPGLVKPSETLSLTCAVSGHSISHDHAWSWVRQPPGEGLEWIGFISYSGITNYNPSLQGRVTISRDNSKNTLYLQMNSLRAEDTAVYYCARSLARTTAMDYWGEGTLVTVSSASTKGPSVFPLAPSSKSTSGGTAALGCLVKDYFPEPVTVSWNSGALTSGVHTFPAVLQSSGLYSLSSVVTVPSSSLGTQTYICNVNHKPSNTKVDKKVEPKSCDKTHTCPPCPAPELRGGPKVFLFPPKPKDTLYISRTPEVTCVVVDVSHEDPEVKFNWYVDGVEVHNAKTKPREEQYNSTYRVVSVLTVLHQDWLNGKEYKCKVSNKALPAPIEKTISKAKGQPREPQVYTLPPSRDELTKNQVSLTCLVKGFYPSDIAVEWESNGQPENNYKTTPPVLDSDGSFFLYSKLTVDKSRWQQGNVFSCSVMHEALHYHVTQKELSLSP light: not shown | 130 nM
4 | IgG1-F1136 (antibody, VH3-IgG1 with Fc substitutions (EU numbering) + L(WT)-CK) heavy: QVQLQESGPGLVKPSETLSLTCAVSGHSISHDHAWSWVRQPPGEGLEWIGFISYSGITNYNPSLQGRVTISRDNSKNTLYLQMNSLRAEDTAVYYCARSLARTTAMDYWGEGTLVTVSSASTKGPSVFPLAPSSKSTSGGTAALGCLVKDYFPEPVTVSWNSGALTSGVHTFPAVLQSSGLYSLSSVVTVPSSSLGTQTYICNVNHKPSNTKVDKKVEPKSCDKTHTCPPCPAPELRGGPKVFLFPPKPKDTLYISRTPEVTCVVVDVSHEDPEVKFNWYVDGVEVHNAKTKPREEQYNSTYRVVSVLTVLHQDWLNGKEYKCKVSNKALPAPIEKTISKAKGQPREPQVYTLPPSRDELTKNQVSLTCLVKGFYPSDIAVEWESNGQPENNYKTTPPVLDSDGSFFLYSKLTVDKSRWQQGNEFRCSVMHEALHYHVTQKSLSLSP light: not shown | 160 nM
5 | IgG1-F1143 (antibody, VH3-IgG1 with Fc substitutions (EU numbering) + L(WT)-CK) heavy: QVQLQESGPGLVKPSETLSLTCAVSGHSISHDHAWSWVRQPPGEGLEWIGFISYSGITNYNPSLQGRVTISRDNSKNTLYLQMNSLRAEDTAVYYCARSLARTTAMDYWGEGTLVTVSSASTKGPSVFPLAPSSKSTSGGTAALGCLVKDYFPEPVTVSWNSGALTSGVHTFPAVLQSSGLYSLSSVVTVPSSSLGTQTYICNVNHKPSNTKVDKKVEPKSCDKTHTCPPCPAPELRGGPKVFLFPPKPKDTLYISRTPEVTCVVVDVSHEDPEVKFNWYVDGVEVHNAKTKPREEQYNSTYRVVSVLTVLHQDWLNGKEYKCKVSNKALPAPIEKTISKAKGQPREPQVYTLPPSRDELTKNQVSLTCLVKGFYPSDIAVEWESNGQPENNYKTTPPVLDSDGSFFLYSKLTVDKSRWQQGNSFRCSVMHEALHYHVTRKELSLSP light: not shown | 200 nM
6 | IgG1-F1140 (antibody, VH3-IgG1 with Fc substitutions (EU numbering) + L(WT)-CK) heavy: QVQLQESGPGLVKPSETLSLTCAVSGHSISHDHAWSWVRQPPGEGLEWIGFISYSGITNYNPSLQGRVTISRDNSKNTLYLQMNSLRAEDTAVYYCARSLARTTAMDYWGEGTLVTVSSASTKGPSVFPLAPSSKSTSGGTAALGCLVKDYFPEPVTVSWNSGALTSGVHTFPAVLQSSGLYSLSSVVTVPSSSLGTQTYICNVNHKPSNTKVDKKVEPKSCDKTHTCPPCPAPELLGGPSVFLFPPKPKDTLYISRTPEVTCVVVDVSHEDPEVKFNWYVDGVEVHNAKTKPREEQYNSTYRVVSVLTVLHQDWLNGKEYKCKVSNKALPAPIEKTISKAKGQPREPQVYTLPPSRDELTKNQVSLTCLVKGFYPSDIAVEWESNGQPENNYKTTPPVLDSDGSFFLYSKLTVDKSRWQQGNEFRCSVMHEALHYHVTRKELSLSP light: not shown | 160 nM

The remaining binders from weak to strong by Kd, led by results:

Row | Kd | Binder
7 | 190 nM | IgG1-F1142 (antibody, VH3-IgG1 with Fc substitutions (EU numbering) + L(WT)-CK) heavy: QVQLQESGPGLVKPSETLSLTCAVSGHSISHDHAWSWVRQPPGEGLEWIGFISYSGITNYNPSLQGRVTISRDNSKNTLYLQMNSLRAEDTAVYYCARSLARTTAMDYWGEGTLVTVSSASTKGPSVFPLAPSSKSTSGGTAALGCLVKDYFPEPVTVSWNSGALTSGVHTFPAVLQSSGLYSLSSVVTVPSSSLGTQTYICNVNHKPSNTKVDKKVEPKSCDKTHTCPPCPAPELRGGPKVFLFPPKPKDTLYISRTPEVTCVVVDVSHEDPEVKFNWYVDGVEVHNAKTKPREEQYNSTYRVVSVLTVLHQDWLNGKEYKCKVSNKALPAPIEKTISKAKGQPREPQVYTLPPSRDELTKNQVSLTCLVKGFYPSDIAVEWESNGQPENNYKTTPPVLDSDGSFFLYSKLTVDKSRWQQGNEFRCSVMHEALHYHVTRKELSLSP light: not shown
8 | 180 nM | IgG1-F1141 (antibody, VH3-IgG1 with Fc substitutions (EU numbering) + L(WT)-CK) heavy: QVQLQESGPGLVKPSETLSLTCAVSGHSISHDHAWSWVRQPPGEGLEWIGFISYSGITNYNPSLQGRVTISRDNSKNTLYLQMNSLRAEDTAVYYCARSLARTTAMDYWGEGTLVTVSSASTKGPSVFPLAPSSKSTSGGTAALGCLVKDYFPEPVTVSWNSGALTSGVHTFPAVLQSSGLYSLSSVVTVPSSSLGTQTYICNVNHKPSNTKVDKKVEPKSCDKTHTCPPCPAPELLGGPSVFLFPPKPKDTLYISRTPEVTCVVVDVSHEDPEVKFNWYVDGVEVHNAKTKPREEQYNSTYRVVSVLTVLHQDWLNGKEYKCKVSNKALPAPIEKTISKAKGQPREPQVYTLPPSRDELTKNQVSLTCLVKGFYPSDIAVEWESNGQPENNYKTTPPVLDSDGSFFLYSKLTVDKSRWQQGNSFRCSVMHEALHYHVTRKELSLSP light: not shown
9 | 170 nM | IgG1-F1138 (antibody, VH3-IgG1 with Fc substitutions (EU numbering) + L(WT)-CK) heavy: QVQLQESGPGLVKPSETLSLTCAVSGHSISHDHAWSWVRQPPGEGLEWIGFISYSGITNYNPSLQGRVTISRDNSKNTLYLQMNSLRAEDTAVYYCARSLARTTAMDYWGEGTLVTVSSASTKGPSVFPLAPSSKSTSGGTAALGCLVKDYFPEPVTVSWNSGALTSGVHTFPAVLQSSGLYSLSSVVTVPSSSLGTQTYICNVNHKPSNTKVDKKVEPKSCDKTHTCPPCPAPELRGGPKVFLFPPKPKDTLYISRTPEVTCVVVDVSHEDPEVKFNWYVDGVEVHNAKTKPREEQYNSTYRVVSVLTVLHQDWLNGKEYKCKVSNKALPAPIEKTISKAKGQPREPQVYTLPPSRDELTKNQVSLTCLVKGFYPSDIAVEWESNGQPENNYKTTPPVLDSDGSFFLYSKLTVDKSRWQQGNVFSCSVMHEALHYHVTRKELSLSP light: not shown
10 | 160 nM | IgG1-F1133 (antibody, VH3-IgG1 with Fc substitutions (EU numbering) + L(WT)-CK) heavy: QVQLQESGPGLVKPSETLSLTCAVSGHSISHDHAWSWVRQPPGEGLEWIGFISYSGITNYNPSLQGRVTISRDNSKNTLYLQMNSLRAEDTAVYYCARSLARTTAMDYWGEGTLVTVSSASTKGPSVFPLAPSSKSTSGGTAALGCLVKDYFPEPVTVSWNSGALTSGVHTFPAVLQSSGLYSLSSVVTVPSSSLGTQTYICNVNHKPSNTKVDKKVEPKSCDKTHTCPPCPAPELRGGPKVFLFPPKPKDTLYISRTPEVTCVVVDVSHEDPEVKFNWYVDGVEVHNAKTKPREEQYNSTYRVVSVLTVLHQDWLNGKEYKCKVSNKALPAPIEKTISKAKGQPREPQVYTLPPSRDELTKNQVSLTCLVKGFYPSDIAVEWESNGQPENNYKTTPPVLDSDGSFFLYSKLTVDKSRWQQGNVFRCSVMHEALHYHVTQKSLSLSP light: not shown
11 | 150 nM | IgG1-F1139 (antibody, VH3-IgG1 with Fc substitutions (EU numbering) + L(WT)-CK) heavy: QVQLQESGPGLVKPSETLSLTCAVSGHSISHDHAWSWVRQPPGEGLEWIGFISYSGITNYNPSLQGRVTISRDNSKNTLYLQMNSLRAEDTAVYYCARSLARTTAMDYWGEGTLVTVSSASTKGPSVFPLAPSSKSTSGGTAALGCLVKDYFPEPVTVSWNSGALTSGVHTFPAVLQSSGLYSLSSVVTVPSSSLGTQTYICNVNHKPSNTKVDKKVEPKSCDKTHTCPPCPAPELRGGPKVFLFPPKPKDTLYISRTPEVTCVVVDVSHEDPEVKFNWYVDGVEVHNAKTKPREEQYNSTYRVVSVLTVLHQDWLNGKEYKCKVSNKALPAPIEKTISKAKGQPREPQVYTLPPSRDELTKNQVSLTCLVKGFYPSDIAVEWESNGQPENNYKTTPPVLDSDGSFFLYSKLTVDKSRWQQGNVFNCSVMHEALHYHVTQKSLSLSP light: not shown
12 | 130 nM | IgG1-F1131 (antibody, VH3-IgG1 with Fc substitutions (EU numbering) + L(WT)-CK) heavy: QVQLQESGPGLVKPSETLSLTCAVSGHSISHDHAWSWVRQPPGEGLEWIGFISYSGITNYNPSLQGRVTISRDNSKNTLYLQMNSLRAEDTAVYYCARSLARTTAMDYWGEGTLVTVSSASTKGPSVFPLAPSSKSTSGGTAALGCLVKDYFPEPVTVSWNSGALTSGVHTFPAVLQSSGLYSLSSVVTVPSSSLGTQTYICNVNHKPSNTKVDKKVEPKSCDKTHTCPPCPAPELRGGPKVFLFPPKPKDTLYISRTPEVTCVVVDVSHEDPEVKFNWYVDGVEVHNAKTKPREEQYNSTYRVVSVLTVLHQDWLNGKEYKCKVSNKALPAPIEKTISKAKGQPREPQVYTLPPSRDELTKNQVSLTCLVKGFYPSDIAVEWESNGQPENNYKTTPPVLDSDGSFFLYSKLTVDKSRWQQGNEFSCSVMHEALHYHVTQKSLSLSP light: not shown
